Paper PMC2947466
Changes are numbered by the printed parent chain. Numbers in names are those of the source.

B1: spastin MIT domain, purified (domain or fragment)
chain: HKQAFEYISIALRIDEDEKAGQKEQAVEWYKKGIEELEKGIAVIVTGQGEQCERARRLQAKMMTNLVMAKDRLQLL
B2: spastin F124D MIT domain, purified (domain or fragment)
chain: B1 chain with F5D
B3: spartin MIT domain (residues 1-107), purified (domain or fragment)
chain: MEQEPQNGEPAEIKIIREAYKKAFLFVNKGLNTDELGQKEEAKNYYKQGIGHLLRGISISSKESEHTGPGWESARQMQQKMKETLQNVRTRLEILEKGLATSLQNDL

Target: GST-Ist1-CTR (residues 296-335) (human)
Test: SPR

Binder | Kd
B1 | 4.6 µM
B2 | 471 µM
B3 | 10.4 µM
